# Assay results published in paper PMC11187106.
# Biological target: CtBP2(WT) (human) (UniProt P56545)
# Assay: SEC; analytical Superose 6 3.2/300 GL, 50 mM HEPES (pH 7.2), 150 mM NaCl; CtBP kept at 100 µM, RAI2 variants titrated at ratios 1:0.1 to 1:2; proteins also run alone; assembly stoichiometries estimated from the elution volumes
substance,measurement,value
"CtBP2(WT), P56545 1-445 (natural protein; other documents disagree on this pair)",stoichiometry N,4
